Assay results reported in US20230406885A1, “CYCLIC PEPTIDES FOR TRAPPING INTERLEUKIN-1 BETA” (MERCK SHARP & DOHME LLC, priority 2022, published 2023).
*1 amine or outer side, *2 acyl side, *3 side chain or, on linkers, in order; H or OH if unused. Primed or numbered codes have the meaning given here. [ ]: non-standard residue; d: D form. TyrEtNAc = L-tyrosine O-ethyl acetamide, (S)-3-(4-(2-acetamidoethoxy)phenyl)-2-aminopropanoic acid, CC(=O)NCCOc1ccc(C[C@H](N[*:1])C(=O)[*:2])cc1; AEF′ = (S)-2-amino-3-(6-(2-aminoethoxy)pyridin-3-yl)propanoic acid, O=C([C@H](Cc1ccc(OCCN[*:3])nc1)N[*:1])[*:2]; AbuMph = (S)-2-amino-4-morpholinobutanoic acid, O=C([C@H](CCN1CCOCC1)N[*:1])[*:2]; Ala(piperidin-4-yl) = O=C([C@H](CC1CCN([*:3])CC1)N[*:1])[*:2]; Pro(trans-4-NH2) = O=C([C@@H]1C[C@@H](N[*:3])CN1[*:1])[*:2]; Trp(βS-Me,4-F) = C[C@@H](c1c[nH]c2cccc(F)c12)[C@H](N)C(=O)O; Bip(4'-COOH) = N[C@@H](Cc1ccc(-c2ccc(C(=O)O)cc2)cc1)C(=O)O; Phe(4-COOH) = N[C@@H](Cc1ccc(C(=O)O)cc1)C(=O)O; hTyr = N[C@@H](CCc1ccc(O)cc1)C(=O)O; hPhe = N[C@@H](CCc1ccccc1)C(=O)O; dDab = NCC[C@@H](N)C(=O)O; dNMeA = CN[C@H](C)C(=O)O; Dab = NCC[C@H](N)C(=O)O

Target: Recombinant human IL-1β (BioLegend 579404) (human, UniProt P01584 117-269)
Test: cell-based or functional assay

MRC5 IC50 [nM]	Binder
0.156	cyclo([TyrEtNAc]W[Phe(4-COOH)]G[Pro(trans-4-NH2)][Trp(βS-Me,4-F)]D[dNMeA]G[Bip(4'-COOH)]W[Dab][dA][hPhe]) (SMILES CC(=O)NCCOc1ccc(C[C@@H]2NC(=O)[C@H](CCc3ccccc3)NC(=O)[C@@H](C)NC(=O)[C@H](CCN)NC(=O)[C@H](Cc3c[nH]c4ccccc34)NC(=O)[C@H](Cc3ccc(-c4ccc(C(=O)O)cc4)cc3)NC(=O)CNC(=O)[C@@H](C)N(C)C(=O)[C@H](CC(=O)O)NC(=O)[C@H]([C@@H](C)c3c[nH]c4cccc(F)c34)NC(=O)[C@@H]3C[C@@H](N)CN3C(=O)CNC(=O)[C@H](Cc3ccc(C(=O)O)cc3)NC(=O)[C@H](Cc3c[nH]c4ccccc34)NC2=O)cc1) [SEQ ID NO: 163 (Example No. 163)]
0.781	cyclo([TyrEtNAc]W[Phe(4-COOH)]G[Pro(trans-4-NH2)][Trp(βS-Me,4-F)]D[dNMeA]G[Bip(4'-COOH)]WL[dA][Ala(piperidin-4-yl)]) (SMILES CC(=O)NCCOc1ccc(C[C@@H]2NC(=O)[C@H](CC3CCNCC3)NC(=O)[C@@H](C)NC(=O)[C@H](CC(C)C)NC(=O)[C@H](Cc3c[nH]c4ccccc34)NC(=O)[C@H](Cc3ccc(-c4ccc(C(=O)O)cc4)cc3)NC(=O)CNC(=O)[C@@H](C)N(C)C(=O)[C@H](CC(=O)O)NC(=O)[C@H]([C@@H](C)c3c[nH]c4cccc(F)c34)NC(=O)[C@@H]3C[C@@H](N)CN3C(=O)CNC(=O)[C@H](Cc3ccc(C(=O)O)cc3)NC(=O)[C@H](Cc3c[nH]c4ccccc34)NC2=O)cc1) [SEQ ID NO: 165 (Example No. 165)]
0.459	cyclo([TyrEtNAc]W[Phe(4-COOH)]G[Pro(trans-4-NH2)][Trp(βS-Me,4-F)]D[dNMeA]G[Bip(4'-COOH)]WL[dA][AEF′]) [SEQ ID NO: 164 (Example No. 164)]
0.149	cyclo([TyrEtNAc]W[Phe(4-COOH)]G[Pro(trans-4-NH2)][Trp(βS-Me,4-F)]D[dNMeA]G[Bip(4'-COOH)]WL[dA][hPhe]) (SMILES CC(=O)NCCOc1ccc(C[C@@H]2NC(=O)[C@H](CCc3ccccc3)NC(=O)[C@@H](C)NC(=O)[C@H](CC(C)C)NC(=O)[C@H](Cc3c[nH]c4ccccc34)NC(=O)[C@H](Cc3ccc(-c4ccc(C(=O)O)cc4)cc3)NC(=O)CNC(=O)[C@@H](C)N(C)C(=O)[C@H](CC(=O)O)NC(=O)[C@H]([C@@H](C)c3c[nH]c4cccc(F)c34)NC(=O)[C@@H]3C[C@@H](N)CN3C(=O)CNC(=O)[C@H](Cc3ccc(C(=O)O)cc3)NC(=O)[C@H](Cc3c[nH]c4ccccc34)NC2=O)cc1) [SEQ ID NO: 166 (Example No. 166)]
0.749	cyclo([TyrEtNAc]W[Phe(4-COOH)]G[Pro(trans-4-NH2)][Trp(βS-Me,4-F)]D[dNMeA]G[Bip(4'-COOH)]W[AbuMph][dA]G) (SMILES CC(=O)NCCOc1ccc(C[C@@H]2NC(=O)CNC(=O)[C@@H](C)NC(=O)[C@H](CCN3CCOCC3)NC(=O)[C@H](Cc3c[nH]c4ccccc34)NC(=O)[C@H](Cc3ccc(-c4ccc(C(=O)O)cc4)cc3)NC(=O)CNC(=O)[C@@H](C)N(C)C(=O)[C@H](CC(=O)O)NC(=O)[C@H]([C@@H](C)c3c[nH]c4cccc(F)c34)NC(=O)[C@@H]3C[C@@H](N)CN3C(=O)CNC(=O)[C@H](Cc3ccc(C(=O)O)cc3)NC(=O)[C@H](Cc3c[nH]c4ccccc34)NC2=O)cc1) [SEQ ID NO: 162 (Example No. 162)]
0.0847	cyclo([TyrEtNAc]W[Phe(4-COOH)]G[Pro(trans-4-NH2)][Trp(βS-Me,4-F)]D[dNMeA]G[Bip(4'-COOH)]WL[dDab][hTyr]) (SMILES CC(=O)NCCOc1ccc(C[C@@H]2NC(=O)[C@H](CCc3ccc(O)cc3)NC(=O)[C@@H](CCN)NC(=O)[C@H](CC(C)C)NC(=O)[C@H](Cc3c[nH]c4ccccc34)NC(=O)[C@H](Cc3ccc(-c4ccc(C(=O)O)cc4)cc3)NC(=O)CNC(=O)[C@@H](C)N(C)C(=O)[C@H](CC(=O)O)NC(=O)[C@H]([C@@H](C)c3c[nH]c4cccc(F)c34)NC(=O)[C@@H]3C[C@@H](N)CN3C(=O)CNC(=O)[C@H](Cc3ccc(C(=O)O)cc3)NC(=O)[C@H](Cc3c[nH]c4ccccc34)NC2=O)cc1) [SEQ ID NO: 168 (Example No. 168)]
0.136	cyclo([TyrEtNAc]W[Phe(4-COOH)]G[Pro(trans-4-NH2)][Trp(βS-Me,4-F)]D[dNMeA]G[Bip(4'-COOH)]WL[dA][hTyr]) (SMILES CC(=O)NCCOc1ccc(C[C@@H]2NC(=O)[C@H](CCc3ccc(O)cc3)NC(=O)[C@@H](C)NC(=O)[C@H](CC(C)C)NC(=O)[C@H](Cc3c[nH]c4ccccc34)NC(=O)[C@H](Cc3ccc(-c4ccc(C(=O)O)cc4)cc3)NC(=O)CNC(=O)[C@@H](C)N(C)C(=O)[C@H](CC(=O)O)NC(=O)[C@H]([C@@H](C)c3c[nH]c4cccc(F)c34)NC(=O)[C@@H]3C[C@@H](N)CN3C(=O)CNC(=O)[C@H](Cc3ccc(C(=O)O)cc3)NC(=O)[C@H](Cc3c[nH]c4ccccc34)NC2=O)cc1) [SEQ ID NO: 167 (Example No. 167)]
0.483	cyclo([TyrEtNAc]W[Phe(4-COOH)]G[Pro(trans-4-NH2)][Trp(βS-Me,4-F)]D[dNMeA]G[Bip(4'-COOH)]KL[dS][hTyr]) (SMILES CC(=O)NCCOc1ccc(C[C@@H]2NC(=O)[C@H](CCc3ccc(O)cc3)NC(=O)[C@@H](CO)NC(=O)[C@H](CC(C)C)NC(=O)[C@H](CCCCN)NC(=O)[C@H](Cc3ccc(-c4ccc(C(=O)O)cc4)cc3)NC(=O)CNC(=O)[C@@H](C)N(C)C(=O)[C@H](CC(=O)O)NC(=O)[C@H]([C@@H](C)c3c[nH]c4cccc(F)c34)NC(=O)[C@@H]3C[C@@H](N)CN3C(=O)CNC(=O)[C@H](Cc3ccc(C(=O)O)cc3)NC(=O)[C@H](Cc3c[nH]c4ccccc34)NC2=O)cc1) [SEQ ID NO: 161 (Example No. 161)]
0.112	cyclo([TyrEtNAc]W[Phe(4-COOH)]G[Pro(trans-4-NH2)][Trp(βS-Me,4-F)]D[dNMeA]G[Bip(4'-COOH)]WL[dK][hTyr]) (SMILES CC(=O)NCCOc1ccc(C[C@@H]2NC(=O)[C@H](CCc3ccc(O)cc3)NC(=O)[C@@H](CCCCN)NC(=O)[C@H](CC(C)C)NC(=O)[C@H](Cc3c[nH]c4ccccc34)NC(=O)[C@H](Cc3ccc(-c4ccc(C(=O)O)cc4)cc3)NC(=O)CNC(=O)[C@@H](C)N(C)C(=O)[C@H](CC(=O)O)NC(=O)[C@H]([C@@H](C)c3c[nH]c4cccc(F)c34)NC(=O)[C@@H]3C[C@@H](N)CN3C(=O)CNC(=O)[C@H](Cc3ccc(C(=O)O)cc3)NC(=O)[C@H](Cc3c[nH]c4ccccc34)NC2=O)cc1) [SEQ ID NO: 169 (Example No. 169)]
